# From the supplement of paper PMC7125110
# ± gives the standard error. Fewer inactive variants are shown than the library holds.
# B1: glmS ribozyme (parent)
# chain: AUAAAAGCGCCAGAACUACAGAAAUGUAGUUGACGAGGAGGAGGUUUAUCGAAUUUUCGGCGGAUGCCUCCAAA
# What was measured:
# Conditions in all cases: with glucosamine-6-phosphate
# glucosamine-6-phosphate [1] = variants of: B1; test: self-cleavage kobs at 40 uM GlcN6P; higher = faster cleavage; RNA array
# How it was run: (§1)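 Using a hybridised Cy3 probe at 37 °C, barcoded ribozyme variants transcribed in situ by E. coli RNA polymerase on sequenced MiSeq chips were monitored across tiles imaged over ~14 h. The flow contained glucosamine-6-phosphate from 40 μM to 10 mM in HEPES/KCl/Mg(OAc)2 buffer. Signals were normalised to baseline and to non-cleaving reference variants before per-tile medians were fit to one- or two-exponential decays to yield kobs. Weighted Michaelis–Menten fits across concentrations gave kcat and KM.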
# glucosamine-6-phosphate [2] = variants of: B1; test: self-cleavage kobs at 160 uM GlcN6P; higher = faster cleavage; RNA array
# How it was run: as §1
# glucosamine-6-phosphate [3] = variants of: B1; test: self-cleavage kobs at 640 uM GlcN6P; higher = faster cleavage; RNA array
# How it was run: as §1
# glucosamine-6-phosphate [4] = variants of: B1; test: self-cleavage kobs at 2500 uM GlcN6P; higher = faster cleavage; RNA array
# How it was run: as §1
# glucosamine-6-phosphate [5] = variants of: B1; test: self-cleavage kobs at 10000 uM GlcN6P; higher = faster cleavage; RNA array
# How it was run: as §1
Variant,self-cleavage kobs at 40 uM GlcN6P (glucosamine-6-phosphate [1]),self-cleavage kobs at 160 uM GlcN6P (glucosamine-6-phosphate [2]),self-cleavage kobs at 640 uM GlcN6P (glucosamine-6-phosphate [3]),self-cleavage kobs at 2500 uM GlcN6P (glucosamine-6-phosphate [4]),self-cleavage kobs at 10000 uM GlcN6P (glucosamine-6-phosphate [5])
G38U U45C,< 1e-05 s⁻¹,< 1e-05 s⁻¹,< 1e-05 s⁻¹,< 1e-05 s⁻¹,< 1e-05 s⁻¹
G37U G41U,< 1e-05 s⁻¹,< 1e-05 s⁻¹,–,< 1e-05 s⁻¹,< 1e-05 s⁻¹
G38U G44U U69G C70G,< 1e-05 s⁻¹,–,–,–,–
G37U G40C,< 1e-05 s⁻¹,< 1e-05 s⁻¹,< 1e-05 s⁻¹,< 1e-05 s⁻¹,< 1e-05 s⁻¹
G37U G40U,< 1e-05 s⁻¹,< 1e-05 s⁻¹,< 1e-05 s⁻¹,< 1e-05 s⁻¹,< 1e-05 s⁻¹
A36G U47C,< 1e-05 s⁻¹,–,–,–,< 1e-05 s⁻¹
G38C U56G,< 1e-05 s⁻¹,< 1e-05 s⁻¹,< 1e-05 s⁻¹,< 1e-05 s⁻¹,–
G37U A39G A42U C70U,< 1e-05 s⁻¹,–,–,–,–
A36U C61G A64C,< 1e-05 s⁻¹,–,–,–,–
G37U G66A,< 1e-05 s⁻¹,–,< 1e-05 s⁻¹,–,–
A36C G63U,< 1e-05 s⁻¹,–,< 1e-05 s⁻¹,–,–
A36U G43C,< 1e-05 s⁻¹,< 1e-05 s⁻¹,< 1e-05 s⁻¹,< 1e-05 s⁻¹,–
C34U G63U,< 1e-05 s⁻¹,< 1e-05 s⁻¹,< 1e-05 s⁻¹,< 1e-05 s⁻¹,–
G35A G60A G66U C67U U69G,< 1e-05 s⁻¹,–,–,< 1e-05 s⁻¹,–
G35C A52C,< 1e-05 s⁻¹,< 1e-05 s⁻¹,< 1e-05 s⁻¹,< 1e-05 s⁻¹,< 1e-05 s⁻¹
G38A A52G,< 1e-05 s⁻¹,–,< 1e-05 s⁻¹,< 1e-05 s⁻¹,< 1e-05 s⁻¹
A36G C58U,< 1e-05 s⁻¹,–,< 1e-05 s⁻¹,< 1e-05 s⁻¹,< 1e-05 s⁻¹
A36G C58A,< 1e-05 s⁻¹,–,–,< 1e-05 s⁻¹,< 1e-05 s⁻¹
A39C C50U A64G,< 1e-05 s⁻¹,–,–,–,–
G38U A39U G60C C68A,< 1e-05 s⁻¹,–,–,< 1e-05 s⁻¹,–
A36C G43A U55A C71U,< 1e-05 s⁻¹,–,< 1e-05 s⁻¹,< 1e-05 s⁻¹,< 1e-05 s⁻¹
A36U U69G C71U,0.000104 ± 4.8e-05 s⁻¹,–,–,–,–
A36C G41A G43A,< 1e-05 s⁻¹,–,–,–,–

Variant,self-cleavage kobs at 40 uM GlcN6P (glucosamine-6-phosphate [1]),self-cleavage kobs at 160 uM GlcN6P (glucosamine-6-phosphate [2]),self-cleavage kobs at 640 uM GlcN6P (glucosamine-6-phosphate [3]),self-cleavage kobs at 2500 uM GlcN6P (glucosamine-6-phosphate [4]),self-cleavage kobs at 10000 uM GlcN6P (glucosamine-6-phosphate [5])
A36U C50G,6.51e-05 ± 1.4e-05 s⁻¹,8.01e-05 ± 1.4e-05 s⁻¹,2.94e-05 ± 1.3e-05 s⁻¹,0.000455 ± 0.00018 s⁻¹,–
G35C A48G,< 1e-05 s⁻¹,< 1e-05 s⁻¹,–,< 1e-05 s⁻¹,–
G35U U45G,< 1e-05 s⁻¹,< 1e-05 s⁻¹,< 1e-05 s⁻¹,< 1e-05 s⁻¹,< 1e-05 s⁻¹
G38U U55C C67G,< 1e-05 s⁻¹,–,< 1e-05 s⁻¹,–,–
G35U,< 1e-05 s⁻¹,< 1e-05 s⁻¹,< 1e-05 s⁻¹,< 1e-05 s⁻¹,< 1e-05 s⁻¹
A36G G38A C58A,< 1e-05 s⁻¹,–,< 1e-05 s⁻¹,–,< 1e-05 s⁻¹
G35C U46G,< 1e-05 s⁻¹,< 1e-05 s⁻¹,< 1e-05 s⁻¹,< 1e-05 s⁻¹,< 1e-05 s⁻¹
A36G C71A,< 1e-05 s⁻¹,< 1e-05 s⁻¹,< 1e-05 s⁻¹,< 1e-05 s⁻¹,–
A36U A39G G51A A53U,< 1e-05 s⁻¹,–,< 1e-05 s⁻¹,< 1e-05 s⁻¹,< 1e-05 s⁻¹
A36C U45G,< 1e-05 s⁻¹,< 1e-05 s⁻¹,< 1e-05 s⁻¹,< 1e-05 s⁻¹,< 1e-05 s⁻¹
A36C U45A,< 1e-05 s⁻¹,< 1e-05 s⁻¹,–,–,< 1e-05 s⁻¹
G37A G51A A53C,< 1e-05 s⁻¹,–,–,–,< 1e-05 s⁻¹
G35A U65A,< 1e-05 s⁻¹,< 1e-05 s⁻¹,< 1e-05 s⁻¹,< 1e-05 s⁻¹,< 1e-05 s⁻¹
G35A U65C,< 1e-05 s⁻¹,< 1e-05 s⁻¹,< 1e-05 s⁻¹,< 1e-05 s⁻¹,< 1e-05 s⁻¹
G37C U45C G59U C68G,< 1e-05 s⁻¹,–,< 1e-05 s⁻¹,–,< 1e-05 s⁻¹
G38C A39U,< 1e-05 s⁻¹,–,< 1e-05 s⁻¹,–,–
C34U U49A C58A U69A,0.000146 ± 5e-05 s⁻¹,–,0.000567 ± 0.00014 s⁻¹,–,4.63e-05 ± 2e-05 s⁻¹
G35U A53G,< 1e-05 s⁻¹,< 1e-05 s⁻¹,< 1e-05 s⁻¹,< 1e-05 s⁻¹,< 1e-05 s⁻¹
G37C U46G A48U,< 1e-05 s⁻¹,–,–,–,< 1e-05 s⁻¹
G38U U56G,< 1e-05 s⁻¹,–,–,< 1e-05 s⁻¹,< 1e-05 s⁻¹
G38C U69C,< 1e-05 s⁻¹,< 1e-05 s⁻¹,–,–,< 1e-05 s⁻¹
G37U C58A G60C C70A,< 1e-05 s⁻¹,–,–,–,< 1e-05 s⁻¹
G37A G38A G41A,< 1e-05 s⁻¹,–,–,–,< 1e-05 s⁻¹

Variant,self-cleavage kobs at 40 uM GlcN6P (glucosamine-6-phosphate [1]),self-cleavage kobs at 160 uM GlcN6P (glucosamine-6-phosphate [2]),self-cleavage kobs at 640 uM GlcN6P (glucosamine-6-phosphate [3]),self-cleavage kobs at 2500 uM GlcN6P (glucosamine-6-phosphate [4]),self-cleavage kobs at 10000 uM GlcN6P (glucosamine-6-phosphate [5])
G35C U46G C70G,< 1e-05 s⁻¹,–,< 1e-05 s⁻¹,< 1e-05 s⁻¹,< 1e-05 s⁻¹
A36U U47G A53G C68G,7.44e-05 ± 2.6e-05 s⁻¹,–,–,–,0.000107 ± 3.7e-05 s⁻¹
G37A G38U C71U,< 1e-05 s⁻¹,–,–,–,–
G35U A64C,< 1e-05 s⁻¹,< 1e-05 s⁻¹,< 1e-05 s⁻¹,< 1e-05 s⁻¹,< 1e-05 s⁻¹
G37U C68A,< 1e-05 s⁻¹,–,–,–,< 1e-05 s⁻¹
G37U U46C,< 1e-05 s⁻¹,–,–,–,< 1e-05 s⁻¹
A36G G60U G66U,< 1e-05 s⁻¹,–,< 1e-05 s⁻¹,< 1e-05 s⁻¹,< 1e-05 s⁻¹
G37A A48G,< 1e-05 s⁻¹,< 1e-05 s⁻¹,–,–,–
G38U U46C,< 1e-05 s⁻¹,–,–,< 1e-05 s⁻¹,–
A36G G51A,< 1e-05 s⁻¹,< 1e-05 s⁻¹,< 1e-05 s⁻¹,–,–
G38C A39U A42G U54A C67G C70U,< 1e-05 s⁻¹,–,–,–,–
G38A U57A U65C,< 1e-05 s⁻¹,–,–,–,–
A36G U56C,< 1e-05 s⁻¹,< 1e-05 s⁻¹,< 1e-05 s⁻¹,< 1e-05 s⁻¹,–
G37U A52U U56C,< 1e-05 s⁻¹,–,< 1e-05 s⁻¹,< 1e-05 s⁻¹,–
G35U U47A U57C,< 1e-05 s⁻¹,–,–,–,–
G38U G51U U54G G66A,< 1e-05 s⁻¹,–,–,–,–
A36U C58U,< 1e-05 s⁻¹,–,< 1e-05 s⁻¹,< 1e-05 s⁻¹,< 1e-05 s⁻¹
A36C C58G U69G,7.56e-05 ± 2.1e-05 s⁻¹,–,–,–,5.12e-05 ± 1.9e-05 s⁻¹
G35U G40C,< 1e-05 s⁻¹,< 1e-05 s⁻¹,< 1e-05 s⁻¹,< 1e-05 s⁻¹,< 1e-05 s⁻¹
G35U G40A,< 1e-05 s⁻¹,< 1e-05 s⁻¹,< 1e-05 s⁻¹,–,< 1e-05 s⁻¹
A36G G41A,< 1e-05 s⁻¹,< 1e-05 s⁻¹,< 1e-05 s⁻¹,< 1e-05 s⁻¹,< 1e-05 s⁻¹
G37C A39G,< 1e-05 s⁻¹,–,–,–,3.63e-05 ± 7.3e-06 s⁻¹
G37A G44U U65G,< 1e-05 s⁻¹,< 1e-05 s⁻¹,< 1e-05 s⁻¹,–,< 1e-05 s⁻¹

Variant,self-cleavage kobs at 40 uM GlcN6P (glucosamine-6-phosphate [1]),self-cleavage kobs at 160 uM GlcN6P (glucosamine-6-phosphate [2]),self-cleavage kobs at 640 uM GlcN6P (glucosamine-6-phosphate [3]),self-cleavage kobs at 2500 uM GlcN6P (glucosamine-6-phosphate [4]),self-cleavage kobs at 10000 uM GlcN6P (glucosamine-6-phosphate [5])
G37U G41U U56A G62A G63U,< 1e-05 s⁻¹,–,–,–,–
A39C A42U A48G C50A,< 1e-05 s⁻¹,–,–,–,–
G35C U45G,< 1e-05 s⁻¹,< 1e-05 s⁻¹,–,< 1e-05 s⁻¹,< 1e-05 s⁻¹
G38A U47A C71G,< 1e-05 s⁻¹,–,–,–,< 1e-05 s⁻¹
G38U A39G G43U G44C,< 1e-05 s⁻¹,–,–,–,< 1e-05 s⁻¹
G35U A48C G60C,< 1e-05 s⁻¹,–,–,< 1e-05 s⁻¹,< 1e-05 s⁻¹
G38A A42C,< 1e-05 s⁻¹,–,–,–,< 1e-05 s⁻¹
G38C U49G A52C,< 1e-05 s⁻¹,–,–,< 1e-05 s⁻¹,–
A36G G44C A64C C67U,< 1e-05 s⁻¹,–,–,–,–
G37U G38A,< 1e-05 s⁻¹,–,–,–,< 1e-05 s⁻¹
G35C G41A,< 1e-05 s⁻¹,< 1e-05 s⁻¹,< 1e-05 s⁻¹,< 1e-05 s⁻¹,< 1e-05 s⁻¹
G35C G41U,< 1e-05 s⁻¹,< 1e-05 s⁻¹,< 1e-05 s⁻¹,< 1e-05 s⁻¹,< 1e-05 s⁻¹
G38C A48U,< 1e-05 s⁻¹,–,–,–,< 1e-05 s⁻¹
A36U U47C,< 1e-05 s⁻¹,< 1e-05 s⁻¹,< 1e-05 s⁻¹,–,< 1e-05 s⁻¹
A36C A53G,< 1e-05 s⁻¹,–,–,–,< 1e-05 s⁻¹
A36G G60U,< 1e-05 s⁻¹,< 1e-05 s⁻¹,< 1e-05 s⁻¹,< 1e-05 s⁻¹,< 1e-05 s⁻¹
G37A A42U C70A,< 1e-05 s⁻¹,–,–,–,–
G35U G59A,< 1e-05 s⁻¹,–,< 1e-05 s⁻¹,–,–
G37U G41U U65C,< 1e-05 s⁻¹,–,–,–,–
G37U G63A,< 1e-05 s⁻¹,< 1e-05 s⁻¹,< 1e-05 s⁻¹,< 1e-05 s⁻¹,< 1e-05 s⁻¹
